Here are results for two substances from PMC6511843.

One series concerns ELK-1(K35R);coreSRF. The series can be described thus: EMSA. As to conditions: not given in material (EMSA as in ref 29; southwestern as in ref 34, modified).
A further series has as its system HA.ELK-1;coreSRF. The series can be described thus: EMSA. As to conditions: not given in material (EMSA as in ref 29; southwestern as in ref 34, modified). For orientation: In EMSA bound probe runs differently from free probe, usually more slowly.
Another series has as its system ELK-1(K70R);coreSRF. As to the kind of experiment: EMSA. As to conditions: not given in material (EMSA as in ref 29; southwestern as in ref 34, modified).
A further series relates to ELK-mUBQ. The series can be described thus: southwestern. The following applies: renatured on nitrocellulose; not given in material (EMSA as in ref 29; southwestern as in ref 34, modified).
In the next series the test system is HA.ELK-1. As to the kind of experiment: EMSA. As to conditions: not given in material (EMSA as in ref 29; southwestern as in ref 34, modified).

Take CFOS SRE: the binding signal (% of WT ELK-1) in the series on ELK-1(K35R);coreSRF and in the series with ELK-1(K70R);coreSRF was 80 throughout. Also, the binding signal (% (reference)) in the series with HA.ELK-1;coreSRF turned out to be 100.
E74 site: in the series on ELK-mUBQ, the binding signal (fold less than unmodified ELK-1) turned out to be 4. Further, the binding signal (% (reference)) in the series on HA.ELK-1 stood at 100.
